Results on two proteins are retold here after ChEMBL document CHEMBL3525949, “Role of organic anion-transporting polypeptides for cellular mesalazine (5-aminosalicylic acid) uptake” (Drug Metab Dispos, 2011).

Usually Km stands for the concentration of substrate that gives half-maximal velocity. What is called Vmax is the top rate of the reaction or transport when substrate is in excess.

Substrate in data set [1]: Nc1ccc(O)c(C(=O)O)c1
Briefly: Drug uptake in human OATP2B1 expressed HEK293 cells assessed as net uptake. Format: ADME, cell-based.

Substrate in data set [2]: Nc1ccc(O)c(C(=O)O)c1
Nature of the data set: Drug uptake in human OATP1B1 expressed HEK293 cells assessed as net uptake. Format: ADME, cell-based.

B1: Solute carrier organic anion transporter family member 2B1 (Homo sapiens) (protein)
chain: MGPRIGPAGEVPQVPDKETKATMGTENTPGGKASPDPQDVRPSVFHNIKLFVLCHSLLQLAQLMISGYLKSSISTVEKRFGLSSQTSGLLASFNEVGNTALIVFVSYFGSRVHRPRMIGYGAILVALAGLLMTLPHFISEPYRYDNTSPEDMPQDFKASLCLPTTSAPASAPSNGNCSSYTETQHLSVVGIMFVAQTLLGVGGVPIQPFGISYIDDFAHNSNSPLYLGILFAVTMMGPGLAFGLGSLMLRLYVDINQMPEGGISLTIKDPRWVGAWWLGFLIAAGAVALAAIPYFFFPKEMPKEKRELQFRRKVLAVTDSPARKGKDSPSKQSPGESTKKQDGLVQIAPNLTVIQFIKVFPRVLLQTLRHPIFLLVVLSQVCLSSMAAGMATFLPKFLERQFSITASYANLLIGCLSFPSVIVGIVVGGVLVKRLHLGPVGCGALCLLGMLLCLFFSLPLFFIGCSSHQIAGITHQTSAHPGLELSPSCMEACSCPLDGFNPVCDPSTRVEYITPCHAGCSSWVVQDALDNSQVFYTNCSCVVEGNPVLAGSCDSTCSHLVVPFLLLVSLGSALACLTHTPSFMLILRGVKKEDKTLAVGIQFMFLRILAWMPSPVIHGSAIDTTCVHWALSCGRRAVCRYYNNDLLRNRFIGLQFFFKTGSVICFALVLAVLRQQDKEARTKESRSSPAVEQQLLVSGPGKKPEDSRV
For B1, in data set [1], the Km came to 189 µM and the maximum rate (Vmax) is 3.72e-05 µmol/min.

B2: Solute carrier organic anion transporter family member 1B1 (Homo sapiens) (protein)
chain: MDQNQHLNKTAEAQPSENKKTRYCNGLKMFLAALSLSFIAKTLGAIIMKSSIIHIERRFEISSSLVGFIDGSFEIGNLLVIVFVSYFGSKLHRPKLIGIGCFIMGIGGVLTALPHFFMGYYRYSKETNINSSENSTSTLSTCLINQILSLNRASPEIVGKGCLKESGSYMWIYVFMGNMLRGIGETPIVPLGLSYIDDFAKEGHSSLYLGILNAIAMIGPIIGFTLGSLFSKMYVDIGYVDLSTIRITPTDSRWVGAWWLNFLVSGLFSIISSIPFFFLPQTPNKPQKERKASLSLHVLETNDEKDQTANLTNQGKNITKNVTGFFQSFKSILTNPLYVMFVLLTLLQVSSYIGAFTYVFKYVEQQYGQPSSKANILLGVITIPIFASGMFLGGYIIKKFKLNTVGIAKFSCFTAVMSLSFYLLYFFILCENKSVAGLTMTYDGNNPVTSHRDVPLSYCNSDCNCDESQWEPVCGNNGITYISPCLAGCKSSSGNKKPIVFYNCSCLEVTGLQNRNYSAHLGECPRDDACTRKFYFFVAIQVLNLFFSALGGTSHVMLIVKIVQPELKSLALGFHSMVIRALGGILAPIYFGALIDTTCIKWSTNNCGTRGSCRTYNSTSFSRVYLGLSSMLRVSSLVLYIILIYAMKKKYQEKDINASENGSVMDEANLESLNKNKHFVPSAGADSETHC
For B2, in data set [2], the Km turned out to be 55.1 µM and the Vmax worked out at 2.83e-05 µmol/min.
